Source: patent US20240343803A1 (SHANDONG SIMCERE BIOPHARMACEUTICAL, published 2024)

What was measured:
[1] = biological target: T1, Fusion protein of extracellular domain of human TIGIT and His-tag (human TIGIT ECD-his) (human); assay: BIAcore; KD ratio to TIGIT-CHI-070
T1 chain: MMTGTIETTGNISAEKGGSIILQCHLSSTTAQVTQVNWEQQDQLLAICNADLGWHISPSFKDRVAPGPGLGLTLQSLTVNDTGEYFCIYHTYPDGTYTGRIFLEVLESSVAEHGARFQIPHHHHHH

[2] = biological target: T1, Fusion protein of extracellular domain …; assay: BIAcore; KD ratio to TIGIT-CHI-006
[3] = biological target: T2, human PVRIG-mFc protein (Acro, PVG-H5253) (human, UniProt Q6DKI7 41-171, limits assumed); assay: competition FACS; blocked: human PVRIG-mFc binding to CHO-K1-CD112 cells
T2 construct: bought reagent; also called PVRIG-ECD-mFc
T2 sequence (looked up): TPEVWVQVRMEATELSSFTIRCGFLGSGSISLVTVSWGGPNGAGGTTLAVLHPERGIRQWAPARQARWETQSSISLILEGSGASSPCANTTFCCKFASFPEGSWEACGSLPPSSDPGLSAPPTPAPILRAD
In short: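 In this competition flow cytometry assay, the IC50 was taken from the curve of mean fluorescence intensity against antibody dilution. Antibodies and human PVRIG-mFc were premixed at 4° C for 30 min, then incubated with Zombie violet-stained CHO-K1-CD112 cells for 30 min at 4° C. PE goat anti-mouse IgG Fc (1:250) detected bound PVRIG-mFc on a BD Canto II.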

[4] = biological target: T3, full-length cynomolgus monkey TIGIT on CHO-K1 cells (CHO-K1 cynomolgus monkey TIGIT) (cynomolgus monkey); assay: FACS
T3 construct: NCBI XP_015300911.1; also called cynomolgus monkey TIGIT cells
T3 sequence (chain, as listed by the source limits assumed): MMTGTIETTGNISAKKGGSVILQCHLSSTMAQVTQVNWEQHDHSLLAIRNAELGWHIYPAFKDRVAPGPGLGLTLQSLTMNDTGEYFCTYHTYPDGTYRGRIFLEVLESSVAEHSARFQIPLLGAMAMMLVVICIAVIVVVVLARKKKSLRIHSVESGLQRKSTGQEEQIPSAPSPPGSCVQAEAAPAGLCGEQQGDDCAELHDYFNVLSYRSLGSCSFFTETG
Method: The collected cells were washed once with PBS (Hyclone, CAT #SH30256), resuspended to 2×10⁵/50 μL with 1% BSA-PBS. The antibodies were diluted to 80 nM with 1% BSA-PBS (diluted by 3-fold serial dilution for 12 concentration points). The 50 μL cells were then mixed with 50 μL diluted antibodies, and then incubated at 4° C. for 60 minutes. […] After washing twice with PBS, the cell samples were resuspended with 1% BSA-PBS, 100 μL/well and then analyzed by flow cytometry (BD, Canto II). […] [0298] (c) The effect of anti-TIGIT chimeric antibodies blocking the interaction between Bio-CD155-His and CHO-K1 human TIGIT high expression cell strains detected by FACS

[5] = biological target: T4, full-length human TIGIT on CHO-K1 cells (CHO-K1 human TIGIT) (human, UniProt Q495A1 22-244); assay: FACS, CHO-K1 human TIGIT low expression strain
T4 construct: NCBI XP_024309156.1; entry includes the signal peptide; also called high expression strain 1D2; medium expression strain 2D10
T4 sequence: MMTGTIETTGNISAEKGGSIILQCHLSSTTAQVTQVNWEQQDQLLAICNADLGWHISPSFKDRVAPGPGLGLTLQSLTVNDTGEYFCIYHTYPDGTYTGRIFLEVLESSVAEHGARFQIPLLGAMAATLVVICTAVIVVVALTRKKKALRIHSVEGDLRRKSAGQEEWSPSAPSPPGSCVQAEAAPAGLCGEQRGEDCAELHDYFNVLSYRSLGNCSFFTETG
Method: The collected cells were washed once with PBS (Hyclone, Cat NO. SH30256), resuspended to 2×10⁵/50 μL with 1% BSA-PBS. The antibodies were diluted to 80 nM with 1% BSA-PBS (diluted by 3-fold serial dilution for 12 concentration points). The 50 μL cells were then mixed with 50 μL diluted antibodies, and then incubated at 4° C. for 60 minutes. […] After washing twice with PBS, the cell samples were resuspended with 1% BSA-PBS, 100 μL/well and then analyzed by flow cytometry (BD, Canto II).

[6] = biological target: T5, human TIGIT ECD-his (fusion protein of extracellular domain of human TIGIT and His-tag) (human); assay: BIAcore kinetics
T5 construct: entry includes the signal peptide, limits not readable here
T5 chain: T1 chain

[7] = biological target: T6, human PVRIG on FlpinCHO-PVRIG cells (human, UniProt Q6DKI7 41-326); assay: FACS, FlpinCHO-PVRIG cells
T6 construct: whole, on cells; also called FlpinCHO-hPVRIG; FlpinCHO-human PVRIG
T6 sequence (looked up): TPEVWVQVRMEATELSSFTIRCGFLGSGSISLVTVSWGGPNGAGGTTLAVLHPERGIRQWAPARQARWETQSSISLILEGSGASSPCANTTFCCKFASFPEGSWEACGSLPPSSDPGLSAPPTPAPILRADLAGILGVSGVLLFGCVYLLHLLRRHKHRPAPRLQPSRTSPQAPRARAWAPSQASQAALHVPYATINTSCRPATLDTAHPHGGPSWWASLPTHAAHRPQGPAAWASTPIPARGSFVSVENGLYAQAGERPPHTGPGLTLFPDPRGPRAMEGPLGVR
Method: After discarding the cell culture medium, the cells were rinsed with PBS and digested for 8-10 minutes by adding 1 mL Versene (Gibico, 15040-066). The Ham's F12 (Gibico, 21127-022) complete medium containing 10% FBS was then added to terminate the digestion and acquire cell suspension. After counting with a cell counter (Beckman Coulter, Vi-CELL), an appropriate amount of cell suspension was centrifuged at 350×g to remove the supernatant, washed twice with PBS, stained with Zombie violet (Biolegend, 423114) and incubated at room temperature for 20 minutes. After incubation, the cells were added with staining buffer (2% FBS+PBS) to stop staining, centrifuged at 350×g to remove the supernatant, washed twice and resuspended with staining buffer to a density of 2×10⁶ cells/mL. The cells were plated into a 96-well plate (50 μL of cell suspension per well) for further use. The antibodies were diluted from the highest concentration of 46 nM (two-fold concentration) with staining buffer by 3.3-fold serial dilution. The diluted antibodies were added to the well containing 50 μL of cell suspension. The plate was placed on a microplate shaker at 400 rpm for 1 minute to fully mix the antibodies and cells, and then incubated at 4° C. for 30 minutes. After the incubation, the cells were washed twice with staining buffer (200 μL per well) and centrifuged at 350×g for 5 minutes to discard the supernatant. The PE goat anti-human IgG Fc antibody (ebioscience, 12-4998-82) was diluted 250 times with staining buffer, added into the washed wells (100 μL per well), mixed well, and stained at 4° C. for 30 minutes. After staining, the cells were washed twice with staining buffer, finally resuspended with 200 μL staining buffer and analyzed by flow cytometry (BD, Canto II). The stronger the signal, the stronger the ability of the antibodies binds to PVRIG. An antibody binding curve was drawn with concentration of antibodies as the abscissa and the corresponding Mean Fluorescence Intensity (MFI) as the ordinate. The AUC value of the curve was calculated by using a Four Parameter Logistic Fit (GraphPadPrism9).

B1: TIGIT-070-H1L1 (antibody, V domains shown)
VH: EVQLVQSGAEVKKPGASVKVSCKASGYTFTNYYMHWVRQAPGQRLEWMGRIDPDSGGSKYNEKFKSRVTITVDKSASTAYMELSSLRSEDTAVYYCAREGHYGFYSDYWGQGTTVTVSS
VL: DIQMTQSPSSLSASVGDRVTITCRVSENIYSYLAWYQQKPGKSPKLLIYNAKTLAEGVPSRFSGSGSGTDFTLTISSLQPEDFATYYCQHHYGNPLTFGPGTKVDIK
notes: Humanized anti-TIGIT antibody
Fold change vs chimeric antibodies (KD) [1]: 0.59 fold

B2: TIGIT-006-H5L3 (antibody, V domains shown)
VH: EVQLQESGPGLVKPSETLSLTCAVSGYSMTSDYWNWIRQPPGKKLEYIGYISYSGRTYYNPSLKSRVTISRDTSKNQFSLKLSSVTAADTAVYYCARGDYSNYGGAMYDWGQGTTVTVSS
VL: DIVMTQSPDSLAVSLGERATINCRASQGVSTTIAWYQQKPGQSPKLLIYSASYRYTGVPRFSGSGSGTDFTLTISSLQAEDVAVYYCQQYYSSPFTFGGGTKVEIK
notes: Humanized anti-TIGIT antibody
Fold change vs chimeric antibodies (KD) [2]: 0.83 fold

B3: SRF813-hIgG1 (antibody, V domains shown)
VH: QVQLVQSGAEVKKPGSSVKVSCKASGGTFSSAAISWVRQAPGQGLEWMGNIIPIVGIANYAQKFQGRVTITADESTSTAYMELSSLRSEDTAVYYCARDTGRGYTRHFWFDPWGQGTLVTVSS
VL: DIQMTQSPSSLSASVGDRVTITCRASQSISSYLNWYQQKPGKAPKLLIYAASSLQSGVPSRFSGSGSGTDFTLTISSLQPEDFATYYCQQSDILYTFGGGTKVEIK
notes: human IgG1 format by its name
IC50 (read off the curve) [3]: ~1 nM

B4: RG6058-hIgG1 (antibody, V domains shown)
VH: EVQLQQSGPGLVKPSQTLSLTCAISGDSVSSNSAAWNWIRQSPSRGLEWLGKTYYRFKWYSDYAVSVKGRITINPDTSKNQFSLQLNSVTPEDTAVFYCTRESTTYDLLAGPFDYWGQGTLVTVSS
VL: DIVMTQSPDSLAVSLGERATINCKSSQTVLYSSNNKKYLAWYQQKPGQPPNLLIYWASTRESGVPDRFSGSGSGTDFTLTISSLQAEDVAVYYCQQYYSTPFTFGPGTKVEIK
notes: human IgG1 format by its name; also called Roche RG6058; control antibody RG6058
EC50 [4]: 0.0509 nM | EC50 (read off the curve) [5]: ~0.4 nM | Kd [6]: 0.163 nM | koff [6]: 0.000147 s⁻¹ | kon [6]: 903000 M⁻¹ s⁻¹

B5: PVRIG-A105 (VHH)
VHH: EVQLVESGGGLVQAGGSLRLSCAASGRTFDRHTMTWFRQAPGKEREFVATASRIPGDTYYSHSVKGRFTISRDNAKNTVYLQLNNLKPEDTAVYYCAATSAYCSEVDCYEKGSWYDNWGQGIQVTVSS
notes: tested as VHH-hinge-CH2-CH3 (human IgG1-Fc); not shown: human IgG1 hinge-CH2-CH3
EC50 (read off the curve) [7]: ~0.4 nM
